Test system: mutant form of α-Gal A expressed in HEK-293 cells
Assay: HEK assay (GLP HEK / Migalastat Amenability Assay): α-Gal A activity in lysates of transiently transfected HEK-293 cells incubated with or without 10 μM migalastat
Type: cell-based, human
Details: for Absolute increase (% WT) / Relative increase: 10 μM migalastat versus baseline; for Baseline α-Gal A activity (% WT): absence of migalastat; for Baseline α-Gal A activity (% WT) / 10 μM migalastat α-Gal A activity (% WT): percentage of baseline wild-type α-Gal A activity; for Baseline α-Gal A activity (% WT) / Baseline α-Gal A activity / 10 μM migalastat α-Gal A activity / 10 μM migalastat α-Gal A activity (% WT): mean ± SEM; for Baseline α-Gal A activity / 10 μM migalastat α-Gal A activity: lysates of HEK-293 cells transiently transfected with the mutant form; for Baseline α-Gal A activity: incubated 5 days in absence of migalastat; for 10 μM migalastat α-Gal A activity: incubated 5 days with 10 μM migalastat; for 10 μM migalastat α-Gal A activity (% WT): with 10 μM migalastat, 5 days
Outline: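 Activity reported as 4-MU released (nmol/mg/hr), mean±SEM, from lysates of transiently transfected HEK-293 cells expressing mutant α-Gal A, cultured with or without 10 μM migalastat.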

Row | Molecule | Absolute increase (% WT) | Relative increase | Baseline α-Gal A activity (% WT) | Baseline α-Gal A activity [nmol/mg/h] | 10 μM migalastat α-Gal A activity [nmol/mg/h] | 10 μM migalastat α-Gal A activity (% WT)
1 | V351A (protein) MQLRNPELHLGCALALRFLALVSWDIPGARALDNGLARTPTMGWLHWERFMCNLDCQEEPDSCISEKLFMEMAELMVSEGWKDAGYEYLCIDDCWMAPQRDSEGRLQADPQRFPHGIRQLANYVHSKGLKLGIYADVGNKTCAGFPGSFGYYDIDAQTFADWGVDLLKFDGCYCDSLENLADGYKHMSLALNRTGRSIVYSCEWPLYMWPFQKPNYTEIRQYCNHWRNFADIDDSWKSIKSILDWTSFNQERIVDVAGPGGWNDPDMLVIGNFGLSWNQQVTQMALWAIMAAPLFMSNDLRHISPQAKALLQDKDVIAINQDPLGKQGYQLRQGDNFEVWERPLSGLAWAAAMINRQEIGGPRSYTIAVASLGKGVACNPACFITQLLPVKRKLGFYEWTSRLRSHINPTGTVLLQLENTMQMSLKDLL | 14.2 | 1.3 | 56.9 ± 4.7 | 24009 ± 1662 | 30218 ± 1531 | 71.1 ± 4.1
2 | V351E (protein) MQLRNPELHLGCALALRFLALVSWDIPGARALDNGLARTPTMGWLHWERFMCNLDCQEEPDSCISEKLFMEMAELMVSEGWKDAGYEYLCIDDCWMAPQRDSEGRLQADPQRFPHGIRQLANYVHSKGLKLGIYADVGNKTCAGFPGSFGYYDIDAQTFADWGVDLLKFDGCYCDSLENLADGYKHMSLALNRTGRSIVYSCEWPLYMWPFQKPNYTEIRQYCNHWRNFADIDDSWKSIKSILDWTSFNQERIVDVAGPGGWNDPDMLVIGNFGLSWNQQVTQMALWAIMAAPLFMSNDLRHISPQAKALLQDKDVIAINQDPLGKQGYQLRQGDNFEVWERPLSGLAWAEAMINRQEIGGPRSYTIAVASLGKGVACNPACFITQLLPVKRKLGFYEWTSRLRSHINPTGTVLLQLENTMQMSLKDLL | 7.2 | 1.7 | 10.5 ± 0.5 | 4760 ± 281 | 7910 ± 348 | 17.7 ± 1
3 | M353T (protein) MQLRNPELHLGCALALRFLALVSWDIPGARALDNGLARTPTMGWLHWERFMCNLDCQEEPDSCISEKLFMEMAELMVSEGWKDAGYEYLCIDDCWMAPQRDSEGRLQADPQRFPHGIRQLANYVHSKGLKLGIYADVGNKTCAGFPGSFGYYDIDAQTFADWGVDLLKFDGCYCDSLENLADGYKHMSLALNRTGRSIVYSCEWPLYMWPFQKPNYTEIRQYCNHWRNFADIDDSWKSIKSILDWTSFNQERIVDVAGPGGWNDPDMLVIGNFGLSWNQQVTQMALWAIMAAPLFMSNDLRHISPQAKALLQDKDVIAINQDPLGKQGYQLRQGDNFEVWERPLSGLAWAVATINRQEIGGPRSYTIAVASLGKGVACNPACFITQLLPVKRKLGFYEWTSRLRSHINPTGTVLLQLENTMQMSLKDLL | 19.2 | 1.4 | 46.4 ± 2.8 | 15631 ± 1026 | 21953 ± 937 | 65.6 ± 3
4 | I354R (protein) MQLRNPELHLGCALALRFLALVSWDIPGARALDNGLARTPTMGWLHWERFMCNLDCQEEPDSCISEKLFMEMAELMVSEGWKDAGYEYLCIDDCWMAPQRDSEGRLQADPQRFPHGIRQLANYVHSKGLKLGIYADVGNKTCAGFPGSFGYYDIDAQTFADWGVDLLKFDGCYCDSLENLADGYKHMSLALNRTGRSIVYSCEWPLYMWPFQKPNYTEIRQYCNHWRNFADIDDSWKSIKSILDWTSFNQERIVDVAGPGGWNDPDMLVIGNFGLSWNQQVTQMALWAIMAAPLFMSNDLRHISPQAKALLQDKDVIAINQDPLGKQGYQLRQGDNFEVWERPLSGLAWAVAMRNRQEIGGPRSYTIAVASLGKGVACNPACFITQLLPVKRKLGFYEWTSRLRSHINPTGTVLLQLENTMQMSLKDLL | 27.8 | 2.4 | 20.1 ± 1.2 | 9157 ± 633 | 21854 ± 1398 | 47.9 ± 2.6
5 | M353L (protein) MQLRNPELHLGCALALRFLALVSWDIPGARALDNGLARTPTMGWLHWERFMCNLDCQEEPDSCISEKLFMEMAELMVSEGWKDAGYEYLCIDDCWMAPQRDSEGRLQADPQRFPHGIRQLANYVHSKGLKLGIYADVGNKTCAGFPGSFGYYDIDAQTFADWGVDLLKFDGCYCDSLENLADGYKHMSLALNRTGRSIVYSCEWPLYMWPFQKPNYTEIRQYCNHWRNFADIDDSWKSIKSILDWTSFNQERIVDVAGPGGWNDPDMLVIGNFGLSWNQQVTQMALWAIMAAPLFMSNDLRHISPQAKALLQDKDVIAINQDPLGKQGYQLRQGDNFEVWERPLSGLAWAVALINRQEIGGPRSYTIAVASLGKGVACNPACFITQLLPVKRKLGFYEWTSRLRSHINPTGTVLLQLENTMQMSLKDLL | 14.6 | 1.2 | 66.6 ± 2.7 | 30347 ± 1572 | 36987 ± 1768 | 81.2 ± 2.7
6 | M353K (protein) MQLRNPELHLGCALALRFLALVSWDIPGARALDNGLARTPTMGWLHWERFMCNLDCQEEPDSCISEKLFMEMAELMVSEGWKDAGYEYLCIDDCWMAPQRDSEGRLQADPQRFPHGIRQLANYVHSKGLKLGIYADVGNKTCAGFPGSFGYYDIDAQTFADWGVDLLKFDGCYCDSLENLADGYKHMSLALNRTGRSIVYSCEWPLYMWPFQKPNYTEIRQYCNHWRNFADIDDSWKSIKSILDWTSFNQERIVDVAGPGGWNDPDMLVIGNFGLSWNQQVTQMALWAIMAAPLFMSNDLRHISPQAKALLQDKDVIAINQDPLGKQGYQLRQGDNFEVWERPLSGLAWAVAKINRQEIGGPRSYTIAVASLGKGVACNPACFITQLLPVKRKLGFYEWTSRLRSHINPTGTVLLQLENTMQMSLKDLL | 13.0 | 1.4 | 30.3 ± 1.8 | 13638 ± 804 | 19335 ± 946 | 43.4 ± 2.6
7 | A352T (protein) MQLRNPELHLGCALALRFLALVSWDIPGARALDNGLARTPTMGWLHWERFMCNLDCQEEPDSCISEKLFMEMAELMVSEGWKDAGYEYLCIDDCWMAPQRDSEGRLQADPQRFPHGIRQLANYVHSKGLKLGIYADVGNKTCAGFPGSFGYYDIDAQTFADWGVDLLKFDGCYCDSLENLADGYKHMSLALNRTGRSIVYSCEWPLYMWPFQKPNYTEIRQYCNHWRNFADIDDSWKSIKSILDWTSFNQERIVDVAGPGGWNDPDMLVIGNFGLSWNQQVTQMALWAIMAAPLFMSNDLRHISPQAKALLQDKDVIAINQDPLGKQGYQLRQGDNFEVWERPLSGLAWAVTMINRQEIGGPRSYTIAVASLGKGVACNPACFITQLLPVKRKLGFYEWTSRLRSHINPTGTVLLQLENTMQMSLKDLL | 31.0 | 1.9 | 37.2 ± 2.1 | 15803 ± 777 | 29351 ± 1532 | 68.2 ± 3.2
8 | A352S (protein) MQLRNPELHLGCALALRFLALVSWDIPGARALDNGLARTPTMGWLHWERFMCNLDCQEEPDSCISEKLFMEMAELMVSEGWKDAGYEYLCIDDCWMAPQRDSEGRLQADPQRFPHGIRQLANYVHSKGLKLGIYADVGNKTCAGFPGSFGYYDIDAQTFADWGVDLLKFDGCYCDSLENLADGYKHMSLALNRTGRSIVYSCEWPLYMWPFQKPNYTEIRQYCNHWRNFADIDDSWKSIKSILDWTSFNQERIVDVAGPGGWNDPDMLVIGNFGLSWNQQVTQMALWAIMAAPLFMSNDLRHISPQAKALLQDKDVIAINQDPLGKQGYQLRQGDNFEVWERPLSGLAWAVSMINRQEIGGPRSYTIAVASLGKGVACNPACFITQLLPVKRKLGFYEWTSRLRSHINPTGTVLLQLENTMQMSLKDLL | 12.1 | 1.2 | 52.8 ± 3.7 | 23476 ± 1901 | 28397 ± 1310 | 64.9 ± 2.5
